Test results: PMC7264359, “AcrIF9 tethers non-sequence specific dsDNA to the CRISPR RNA-guided surveillance complex” (Nature Communications, 2020)

What was measured:
[1] = molecular target: type I-F CRISPR RNA-guided surveillance complex (Csy) (Pseudomonas aeruginosa) (UniProt Q02ML9); assay: cryo-EM structure; Csy–AcrIF9 complex co-expressed in E. coli and co-purified (Ni-NTA, Superdex 200 in 20 mM HEPES pH 7.5, 100 mM NaCl, 5% glycerol, 1 mM TCEP); nominal resolution ~3.9 Å
[2] = molecular target: the molecule itself; assay: as above

type I-F CRISPR RNA-guided surveillance complex (Csy) (Pseudomonas aeruginosa), sequence (Q02ML9 whole entry, chain 1 of 3): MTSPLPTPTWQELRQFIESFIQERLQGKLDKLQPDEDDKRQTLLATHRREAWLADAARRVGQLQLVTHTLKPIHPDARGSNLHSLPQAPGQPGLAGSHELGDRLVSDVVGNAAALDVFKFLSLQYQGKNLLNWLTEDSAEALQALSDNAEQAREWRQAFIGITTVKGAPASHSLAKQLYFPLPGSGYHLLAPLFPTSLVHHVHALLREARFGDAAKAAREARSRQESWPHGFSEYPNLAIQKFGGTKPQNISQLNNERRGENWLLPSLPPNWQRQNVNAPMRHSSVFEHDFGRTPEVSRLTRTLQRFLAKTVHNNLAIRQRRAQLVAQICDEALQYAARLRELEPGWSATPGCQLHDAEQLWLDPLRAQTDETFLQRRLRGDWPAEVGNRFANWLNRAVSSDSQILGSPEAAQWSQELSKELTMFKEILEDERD
type I-F CRISPR RNA-guided surveillance complex (Csy) (Pseudomonas aeruginosa), sequence (Q02MM0 whole entry, chain 2 of 3, further chain): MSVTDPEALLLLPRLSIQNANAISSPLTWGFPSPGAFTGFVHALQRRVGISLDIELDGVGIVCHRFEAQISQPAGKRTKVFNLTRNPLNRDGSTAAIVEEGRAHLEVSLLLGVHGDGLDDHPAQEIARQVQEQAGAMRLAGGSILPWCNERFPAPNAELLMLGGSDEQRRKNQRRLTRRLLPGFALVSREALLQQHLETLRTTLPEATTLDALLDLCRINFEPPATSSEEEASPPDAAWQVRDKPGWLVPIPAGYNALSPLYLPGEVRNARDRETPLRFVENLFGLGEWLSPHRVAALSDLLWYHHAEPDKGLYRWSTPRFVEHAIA
type I-F CRISPR RNA-guided surveillance complex (Csy) (Pseudomonas aeruginosa), sequence (Q02MM2 whole entry, chain 4 of 3, further chain): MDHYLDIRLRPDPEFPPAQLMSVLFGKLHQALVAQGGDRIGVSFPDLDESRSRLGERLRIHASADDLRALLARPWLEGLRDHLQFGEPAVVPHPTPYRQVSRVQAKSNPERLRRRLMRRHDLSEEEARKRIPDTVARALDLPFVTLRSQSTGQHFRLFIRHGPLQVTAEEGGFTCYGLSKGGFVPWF

Molecule | stoichiometry N [1] | stoichiometry N [2]
anti-CRISPR protein IF9 (AcrIF9), co-expressed with Csy (natural protein) | 2 | –
Cas7f (natural protein, Pseudomonas aeruginosa, Cas7f, backbone subunit of the type I-F Csy complex of Pseudomonas aeruginosa; Stood in the assay as a subunit of the Csy complex (six copies along the crRNA); also called Cas7.4f; Cas7.6f; source: E. coli BL21 (DE3), co-expressed with the other Csy genes, a synthetic CRISPR and AcrIF9; purified within the complex (Ni-NTA, Superdex 200)) SKPILSTASVLAFERKLDPSDALMSAGAWAQRDASQEWPAVTVREKSVRGTISNRLKTKDRDPAKLDASIQSPNLQTVDVANLPSDADTLKVRFTLRVLGGAGTPSACNDAAYRDKLLQTVATYVNDQGFAELARRYAHNLANARFLWRNRVGAEAVEVRINHIRQGEVARAWRFDALAIGLRDFKADAELDALAELIASGLSGSGHVLLEVVAFARIGDGQEVFPSQELILDKGDKKGQKSKTLYSVRDAAAIHSQKIGNALRTIDTWYPDEDGLGPIAVEPYGSVTSQGKAYRQPKQKLDFYTLLDNWVLRDEAPAVEQQHYVIANLIRGGVFGEAEEK | – | 6
